According to patent US20190276534A1:

Target: human PD-1 on CHO cells (human) (UniProt Q15116)
Assay: flow cytometry, CHO cells with human PD-1 incubated with antibody 100 nM, then PD-L2-FITC; competitor PD-L2-FITC

Chain of human PD-1 on CHO cells (human) (Q15116 25-288 limits assumed): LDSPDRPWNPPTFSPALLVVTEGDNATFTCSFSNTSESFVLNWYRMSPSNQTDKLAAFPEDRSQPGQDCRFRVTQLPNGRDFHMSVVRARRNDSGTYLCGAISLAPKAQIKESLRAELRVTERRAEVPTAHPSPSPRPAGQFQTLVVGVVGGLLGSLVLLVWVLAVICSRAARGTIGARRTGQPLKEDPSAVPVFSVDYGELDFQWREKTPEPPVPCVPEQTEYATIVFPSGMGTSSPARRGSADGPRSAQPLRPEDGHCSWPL

control IgG (antibody)
MFI (PD-L2-FITC) in presence of the antibody: 183000
